Assay results taken from publication PMC7954794, “Protein context shapes the specificity of SH3 domain-mediated interactions in vivo” (Nature Communications, 2021).

Tested on: growth of yeast strains under 51 stress conditions
Experiment: Growth assays in 51 stress conditions (Fig. 1E-F, S2D, S5B)
Format: cell-based, Saccharomyces cerevisiae
Parameters: key to Growth (Fig. S2D) / growth of ABP1 SH3-swapped strains in stress condition: log2 colony size, average of median per strain (growth score)
Conditions: FigS2D
Method in brief: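 Yeast WT, SH3-deleted, KO, SH3-swapped and SH3-shuffled strains pinned in 1536 format, 12 replicates each; pregrown on YPD 2 days at 30 °C, then replicated onto 51 media at 37 °C and imaged every 2 h. Growth score = mean of per-plate median log2 colony size at 74 h.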

B1: YSC84 (protein, UniProt P32793 1-468, looked up)
Protein YSC84: MGINNPIPRSLKSETKKAAKVLRSFVKPNQVFGADQVIPPYVLKRAKGLAIITVLKAGFLFSGRAGSGVIVARLKDGTWSAPSAIAMAGAGAGGMVGVELTDFVFILNSEEAVRSFSEFGTITLGGNVSVSAGPLGRSAEAAASASTGGVSAVFAYSKSKGLFAGVSVEGSAILERREANRKFYGDNCTSKMILSGRVKVPPAADPLLRILESRAFNFTRHDHDDNASGDDFYDDGQYSDNTSHYYDDIPDSFDSTDESSTRPNTRSSRRRGMSLGSRSRYDDDYDDDGYGRGRGYGDFDSEDEDYDYGRSPNRNSSRNRGPQIDRGTKPRANTRWEDDLYDRDTEYSRPNHSGRDYDNTRGNRRGYGRERGYSLGHGPTHPSNMSNVDDLSHKMSKTGLGNESTATNSATPTAVALYNFAGEQPGDLAFKKGDVITILKKSDSQNDWWTGRTNGKEGIFPANYVRVS
B1 was tested, and the “growth of ABP1 SH3-swapped strains in stress condition” value (from here on “growth of ABP1 SH3-swapped strains”) (Bathophenanthroline.0.1uM) was 10.863, the “growth of ABP1 SH3-swapped strains” value (Bathophenanthroline.10uM) was 10.6791 and the “growth of ABP1 SH3-swapped strains” value (Bathophenanthroline.1uM) was 10.8306. The “growth of ABP1 SH3-swapped strains” value (CaCl2.100mM) was 10.8211, the “growth of ABP1 SH3-swapped strains” value (CaCl2.250mM) was 10.7492 and the “growth of ABP1 SH3-swapped strains” value (CaCl2.500mM) was 10.2924. For the same molecule, the “growth of ABP1 SH3-swapped strains” value (Caffein.10mM) was 10.0875, the “growth of ABP1 SH3-swapped strains” value (Caffein.2mM) was 11.0461 and the “growth of ABP1 SH3-swapped strains” value (CdCl2.100uM) was 9.612. For the same molecule, the “growth of ABP1 SH3-swapped strains” value (CdCl2.10uM) was 10.8942, the “growth of ABP1 SH3-swapped strains” value (CdCl2.50uM) was 9.965 and the “growth of ABP1 SH3-swapped strains” value (CuSO4.1mM) was 10.4219. For the same molecule, the “growth of ABP1 SH3-swapped strains” value (CuSO4.5mM) was 8.049, the “growth of ABP1 SH3-swapped strains” value (Cycloheximide.0.05.uM) was 11.0738 and the “growth of ABP1 SH3-swapped strains” value (Cycloheximide.0.2.uM) was 10.6488. The “growth of ABP1 SH3-swapped strains” value (Cycloheximide.0.5.uM) was 10.1375, the “growth of ABP1 SH3-swapped strains” value (DMSO.2.) was 11.0761 and the “growth of ABP1 SH3-swapped strains” value (DMSO.6.) was 9.8918. For the same molecule, the “growth of ABP1 SH3-swapped strains” value (DMSO.8.) was 9.375, the “growth of ABP1 SH3-swapped strains” value (Ethanol.2.) was 10.7982 and the “growth of ABP1 SH3-swapped strains” value (Ethanol.6.) was 10.2832. The “growth of ABP1 SH3-swapped strains” value (Ethanol.8.) was 10.0513, the “growth of ABP1 SH3-swapped strains” value (Galactose.2.) was 10.753 and the “growth of ABP1 SH3-swapped strains” value (Glycerol.2.) was 9.905. The “growth of ABP1 SH3-swapped strains” value (Hydroxyurea.25mM) was 10.7776, the “growth of ABP1 SH3-swapped strains” value (Hygromycin.190uM) was 10.9721 and the “growth of ABP1 SH3-swapped strains” value (Hygromycin.19uM) was 10.9865. For the same molecule, the “growth of ABP1 SH3-swapped strains” value (Hygromycin.95uM) was 11.0398, the “growth of ABP1 SH3-swapped strains” value (MMS.0.004.) was 10.997 and the “growth of ABP1 SH3-swapped strains” value (MMS.0.02.) was 10.758. The “growth of ABP1 SH3-swapped strains” value (MMS.0.04.) was 10.0132, the “growth of ABP1 SH3-swapped strains” value (Menadione.100uM) was 10.5944 and the “growth of ABP1 SH3-swapped strains” value (Menadione.200uM) was 10.563. The “growth of ABP1 SH3-swapped strains” value (Menadione.50uM) was 10.853, the “growth of ABP1 SH3-swapped strains” value (NaCl.0.25M) was 10.8517 and the “growth of ABP1 SH3-swapped strains” value (NaCl.1M) was 9.6266. For the same molecule, the “growth of ABP1 SH3-swapped strains” value (Nitroquinoline.10uM) was 10.6185, the “growth of ABP1 SH3-swapped strains” value (Nitroquinoline.50uM) was 10.6333 and the “growth of ABP1 SH3-swapped strains” value (Nystatin.0.01uM) was 10.9762. For the same molecule, the “growth of ABP1 SH3-swapped strains” value (Nystatin.0.1uM) was 10.9958, the “growth of ABP1 SH3-swapped strains” value (Raffinose.2.) was 11.0249 and the “growth of ABP1 SH3-swapped strains” value (Rapamycin.10nM) was 9.871. The “growth of ABP1 SH3-swapped strains” value (Rapamycin.50nM) was 9.5402, the “growth of ABP1 SH3-swapped strains” value (SC.pH3) was 10.4227 and the “growth of ABP1 SH3-swapped strains” value (SC.pH6) was 10.9991. For the same molecule, the “growth of ABP1 SH3-swapped strains” value (SDS.0.01.) was 11.0315, the “growth of ABP1 SH3-swapped strains” value (SDS.0.02.) was 11.0179 and the “growth of ABP1 SH3-swapped strains” value (SDS.0.05.) was 10.9653. For the same molecule, the “growth of ABP1 SH3-swapped strains” value (Sorbitol.10mM) was 10.9675, the “growth of ABP1 SH3-swapped strains” value (Sorbitol.1mM) was 11.0498 and the “growth of ABP1 SH3-swapped strains” value (Sorbitol.5mM) was 10.8766.

B2: SHO1 (protein, UniProt P40073 1-367, looked up)
High osmolarity signaling …: MSISSKIRPTPRKPSRMATDHSFKMKKFYADPFAISSISLAIVSWVIAIGGSISSASTNESFPRFTWWGIVYQFLIICSLMLFYCFDLVDHYRIFITTSIAVAFVYNTNSATNLVYADGPKKAAASAGVILLSIINLIWILYYGGDNASPTNRWIDSFSIKGIRPSPLENSLHRARRRGNRNTTPYQNNVYNDAIRDSGYATQFDGYPQQQPSHTNYVSSTALAGFENTQPNTSEAVNLHLNTLQQRINSASNAKETNDNSNNQTNTNIGNTFDTDFSNGNTETTMGDTLGLYSDIGDDNFIYKAKALYPYDADDDDAYEISFEQNEILQVSDIEGRWWKARRANGETGIIPSNYVQLIDGPEEMHR
For B2, the “growth of ABP1 SH3-swapped strains” value (Bathophenanthroline.0.1uM) was 10.8666, the “growth of ABP1 SH3-swapped strains” value (Bathophenanthroline.10uM) was 10.6802 and the “growth of ABP1 SH3-swapped strains” value (Bathophenanthroline.1uM) was 10.8165. The “growth of ABP1 SH3-swapped strains” value (CaCl2.100mM) was 10.8196, the “growth of ABP1 SH3-swapped strains” value (CaCl2.250mM) was 10.7666 and the “growth of ABP1 SH3-swapped strains” value (CaCl2.500mM) was 10.33. For the same molecule, the “growth of ABP1 SH3-swapped strains” value (Caffein.10mM) was 9.975, the “growth of ABP1 SH3-swapped strains” value (Caffein.2mM) was 10.938 and the “growth of ABP1 SH3-swapped strains” value (CdCl2.100uM) was 9.34. The “growth of ABP1 SH3-swapped strains” value (CdCl2.10uM) was 10.884, the “growth of ABP1 SH3-swapped strains” value (CdCl2.50uM) was 9.827 and the “growth of ABP1 SH3-swapped strains” value (CuSO4.1mM) was 10.4931. For the same molecule, the “growth of ABP1 SH3-swapped strains” value (CuSO4.5mM) was 7.806, the “growth of ABP1 SH3-swapped strains” value (Cycloheximide.0.05.uM) was 11.0905 and the “growth of ABP1 SH3-swapped strains” value (Cycloheximide.0.2.uM) was 10.7035. For the same molecule, the “growth of ABP1 SH3-swapped strains” value (Cycloheximide.0.5.uM) was 10.0394, the “growth of ABP1 SH3-swapped strains” value (DMSO.2.) was 11.0205 and the “growth of ABP1 SH3-swapped strains” value (DMSO.6.) was 9.808. For the same molecule, the “growth of ABP1 SH3-swapped strains” value (DMSO.8.) was 8.962, the “growth of ABP1 SH3-swapped strains” value (Ethanol.2.) was 10.7684 and the “growth of ABP1 SH3-swapped strains” value (Ethanol.6.) was 10.4049. For the same molecule, the “growth of ABP1 SH3-swapped strains” value (Ethanol.8.) was 10.2263, the “growth of ABP1 SH3-swapped strains” value (Galactose.2.) was 10.8154 and the “growth of ABP1 SH3-swapped strains” value (Glycerol.2.) was 9.771. The “growth of ABP1 SH3-swapped strains” value (Hydroxyurea.25mM) was 10.7838, the “growth of ABP1 SH3-swapped strains” value (Hygromycin.190uM) was 10.9371 and the “growth of ABP1 SH3-swapped strains” value (Hygromycin.19uM) was 10.9563. The “growth of ABP1 SH3-swapped strains” value (Hygromycin.95uM) was 10.9936, the “growth of ABP1 SH3-swapped strains” value (MMS.0.004.) was 10.9851 and the “growth of ABP1 SH3-swapped strains” value (MMS.0.02.) was 10.7181. For the same molecule, the “growth of ABP1 SH3-swapped strains” value (MMS.0.04.) was 10.0309, the “growth of ABP1 SH3-swapped strains” value (Menadione.100uM) was 10.5941 and the “growth of ABP1 SH3-swapped strains” value (Menadione.200uM) was 10.4073. For the same molecule, the “growth of ABP1 SH3-swapped strains” value (Menadione.50uM) was 10.7963, the “growth of ABP1 SH3-swapped strains” value (NaCl.0.25M) was 10.8224 and the “growth of ABP1 SH3-swapped strains” value (NaCl.1M) was 9.702. For the same molecule, the “growth of ABP1 SH3-swapped strains” value (Nitroquinoline.10uM) was 10.7342, the “growth of ABP1 SH3-swapped strains” value (Nitroquinoline.50uM) was 10.7229 and the “growth of ABP1 SH3-swapped strains” value (Nystatin.0.01uM) was 11.0733. For the same molecule, the “growth of ABP1 SH3-swapped strains” value (Nystatin.0.1uM) was 11.0089, the “growth of ABP1 SH3-swapped strains” value (Raffinose.2.) was 11.0381 and the “growth of ABP1 SH3-swapped strains” value (Rapamycin.10nM) was 9.786. For the same molecule, the “growth of ABP1 SH3-swapped strains” value (Rapamycin.50nM) was 9.424, the “growth of ABP1 SH3-swapped strains” value (SC.pH3) was 10.389 and the “growth of ABP1 SH3-swapped strains” value (SC.pH6) was 11.0143. The “growth of ABP1 SH3-swapped strains” value (SDS.0.01.) was 10.9726, the “growth of ABP1 SH3-swapped strains” value (SDS.0.02.) was 10.9605 and the “growth of ABP1 SH3-swapped strains” value (SDS.0.05.) was 10.8495. For the same molecule, the “growth of ABP1 SH3-swapped strains” value (Sorbitol.10mM) was 10.9902, the “growth of ABP1 SH3-swapped strains” value (Sorbitol.1mM) was 11.0334 and the “growth of ABP1 SH3-swapped strains” value (Sorbitol.5mM) was 10.9353.
